Tested on: Human POU5F1B (HA-tagged, overexpressed in SW480 cells)

ZDHHC-17 palmitoyl transferase, sequence (chain, as listed by the source): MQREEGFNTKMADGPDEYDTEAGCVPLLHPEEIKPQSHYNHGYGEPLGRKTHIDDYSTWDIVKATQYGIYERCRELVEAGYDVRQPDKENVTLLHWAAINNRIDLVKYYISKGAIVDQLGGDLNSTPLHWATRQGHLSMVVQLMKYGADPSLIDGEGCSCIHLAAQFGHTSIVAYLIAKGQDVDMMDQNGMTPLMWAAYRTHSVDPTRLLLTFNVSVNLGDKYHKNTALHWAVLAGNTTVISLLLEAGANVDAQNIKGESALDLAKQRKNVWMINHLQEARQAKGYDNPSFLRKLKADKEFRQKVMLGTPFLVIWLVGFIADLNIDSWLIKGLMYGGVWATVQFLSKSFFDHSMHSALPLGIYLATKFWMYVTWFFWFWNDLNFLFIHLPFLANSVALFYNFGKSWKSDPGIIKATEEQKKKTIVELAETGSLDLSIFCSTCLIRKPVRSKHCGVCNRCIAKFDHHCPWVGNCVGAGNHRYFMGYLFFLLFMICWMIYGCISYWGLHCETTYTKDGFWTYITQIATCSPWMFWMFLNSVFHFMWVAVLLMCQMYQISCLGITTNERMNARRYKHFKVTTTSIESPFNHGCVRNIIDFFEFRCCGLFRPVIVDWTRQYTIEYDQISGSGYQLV

ZDHHC-17 palmitoyl transferase
DRM association of POU5F1B upon ZDHHC-17 knockdown: POU5F1B dissociates from DRMs upon ZDHHC-17 knockdown

— patent publication US20260216374
